# Data published in patent USRE49280 (University of Texas, dated 2022).
# B1: TGF-β type III receptor endoglin-like domain (receptor)
# chain: GPEPSTRCELSPINASHPVQALMESFTVLSGCASRGTTGLPREVHVLNLRSTDQGPGQRQREVTLHLNPIASVHTHHKPIVFLLNSPQPLVWHLKTERLAAGVPRLFLVSEGSVVQFPSGNFSLTAETEERNFPQENEHLLRWAQKEYGAVTSFTELKIARNIYIKVGEDQVFPPTCNIGKNFLSLNYLAEYLQPKAAEGCVLPSQPHEKEVHIIELITPSSNPYSAFQVDIIVDIRPAQEDPEVVKNLVLILKCKKSVNWVIKSFDVKGNLKVIAPNSIGFGKESERSMTMTKLVRDDIPSTQENLMKWALDNGYRPVTSYTMAPVANRFHLRLENNEEMRDEEVHTIPPELRILLDPD
# notes: also called TβRIIIE; BGE
# Target: T1, TGF-β2 K25R I92V K94R (UniProt P61812 303-414, K25R; I92V; K94R)
# T1 construct: mature; Immobilised on the SPR sensor surface
# T1 sequence (looked up): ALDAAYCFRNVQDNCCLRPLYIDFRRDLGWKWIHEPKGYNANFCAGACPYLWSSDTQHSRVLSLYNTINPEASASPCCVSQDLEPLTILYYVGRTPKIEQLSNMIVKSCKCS
# Test: SPR, receptor injected over immobilised TGF-β2 K25R I92V K94R
binder,measurement,value
B1,maximal mass-normalized response relative to that for TβRII,~0.5 fold of TβRII
